Series [1] deals with T1, YTHDC2 YTH domain (UniProt Q9H6S0 Q9H6S0:1285-1424).
T1 sequence: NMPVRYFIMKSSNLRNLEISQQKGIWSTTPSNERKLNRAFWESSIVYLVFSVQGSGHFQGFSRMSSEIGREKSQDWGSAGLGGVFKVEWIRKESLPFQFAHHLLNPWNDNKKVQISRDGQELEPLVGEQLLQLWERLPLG
The series is described as follows: competition; value only in figure; 10 uM protein, 25 nM FAM-m6A-RNA. The conditions noted are these: tags: N-terminal His-tag (pET28a), E. coli BL21(DE3); label: FAM.
Description: To set up the FP competition assay, we first used the non-fluorescent “m⁶A-RNA” (FIG. 1C) as a positive control inhibitor. […] Samples were transferred onto the 384-well plate and measured on the plate reader as described above. We obtained the dose-response curves by plotting the FP values against concentrations of inhibitors. The inhibitory curves and IC₅₀ values were obtained using the “Dose-response Inhibition” model in GraphPad Prism6.0™.

For series [2], the target named is T2, YTHDF2 YTH domain (UniProt Q9Y5A9 Q9Y5A9:383-553).
T2 sequence: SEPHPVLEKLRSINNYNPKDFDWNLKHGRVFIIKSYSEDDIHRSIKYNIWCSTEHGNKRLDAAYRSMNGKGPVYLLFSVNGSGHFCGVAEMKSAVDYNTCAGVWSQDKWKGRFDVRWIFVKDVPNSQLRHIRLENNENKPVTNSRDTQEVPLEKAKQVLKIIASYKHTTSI
The series is described as follows: competition; value only in figure; 2 uM protein, 25 nM FAM-m6A-RNA. The following applies: tags: N-terminal His-tag (pET28a), E. coli BL21(DE3); label: 5'-biotin.

Series [3] concerns the target T3, YTHDC1 YTH domain (UniProt Q96MU7 Q96MU7:345-509). Described as above.
Series [4] deals with T4, YTHDF3 YTH domain (UniProt Q7Z739 Q7Z739:391-585).
T4 sequence: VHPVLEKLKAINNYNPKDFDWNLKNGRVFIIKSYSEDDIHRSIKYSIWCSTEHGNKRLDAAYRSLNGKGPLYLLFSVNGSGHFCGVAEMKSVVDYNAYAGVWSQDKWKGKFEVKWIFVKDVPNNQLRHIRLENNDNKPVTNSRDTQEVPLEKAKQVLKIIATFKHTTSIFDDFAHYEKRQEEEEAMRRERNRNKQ
The series is described as above. The conditions noted are these: tags: N-terminal His-tag (pET28a), E. coli BL21(DE3); label: 5'-biotin.

Series [5] concerns the target T5, YTHDF1 YTH domain (UniProt Q9BYJ9 Q9BYJ9:375-552).
T5 sequence: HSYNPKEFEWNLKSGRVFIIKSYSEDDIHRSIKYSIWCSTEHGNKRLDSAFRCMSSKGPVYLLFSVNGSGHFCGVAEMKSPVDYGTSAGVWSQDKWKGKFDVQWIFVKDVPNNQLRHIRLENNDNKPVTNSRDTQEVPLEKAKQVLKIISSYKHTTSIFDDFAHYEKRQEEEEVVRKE
The series is described as follows: FP; 25 mM Tris-HCl pH 7.5, 150 mM NaCl, 25 C. The following applies: tags: N-terminal His-tag (pET28a), E. coli BL21(DE3); label: 5'-FAM. The method, then: (§1) Fluorescence polarization (FP) experiments were performed following the previously reported FP assay conditions for FAM-labeled RNA and YTH domains. Briefly, experiments were conducted in the binding buffer containing 25 mM Tris-HCl, pH 7.5, and 150 mM NaCl[50]. The same binding buffer was used in this study unless otherwise specified. RNA samples were diluted to 50 nM from the stock solutions by the binding buffer. YTH domain proteins were thawed, buffer exchanged into the binding buffer at 4° C. using the 10 kDa-cutoff concentrators (Sigma-Aldrich), and adjusted to 2× of the highest concentration used in the binding assay. […] RNase inhibitor (SUPERaseIn, Invitrogen) was added. 40 L protein solutions with various concentrations were prepared by serial dilution using the binding buffer. Subsequently, we added 40 L diluted RNA into each 40 L protein solution, mixed, and incubated at room temperature for 30 minutes. The final concentration of FAM-m⁶A-RNA or FAM-A-RNA was constant at 25 nM, and the YTH-domain protein concentrations varied from 10 nM to 24 μM. […] After incubation, samples were transferred to a black polypropylene 384-well round-bottom plate (Cellvis) and FP was measured on a Synergy™ Neo2 Multimode Microplate Reader at the wavelength of 485/20 nm for excitation and 528/20 nm for emission at 25° C.

The target of series [6] is T3, YTHDC1 YTH domain. The series is described as follows: EMSA; 20 nM protein, 25 nM RNA, 10 mM HEPES, 50 mM KCl, 1 mM EDTA; complex inhibited by N-7. (In EMSA bound probe runs differently from free probe, usually more slowly.)
Series [7] addresses FTO (UniProt Q9C0B1 Q9C0B1:1-505). As to the kind of experiment: FP; value only in figure; 50 mM borate pH 7.5. The conditions noted are these: tags: His-tag (Ni resin purified), E. coli BL21(DE3); label: 5'-FAM.
For series [8], the target named is T2, YTHDF2 YTH domain. The series is described as follows: FP; value only in figure; 25 mM Tris-HCl pH 7.5, 150 mM NaCl. The conditions noted are these: tags: N-terminal His-tag (pET28a), E. coli BL21(DE3); label: 5'-FAM. The method, then:
as §1

Series [9] addresses T4, YTHDF3 YTH domain. Described as above. The conditions noted are these: tags: N-terminal His-tag (pET28a), E. coli BL21(DE3); label: 5'-FAM. As for the experimental part: as §1

Chain of FTO (Q9C0B1 whole entry, the tested form may be a part, one chain of several): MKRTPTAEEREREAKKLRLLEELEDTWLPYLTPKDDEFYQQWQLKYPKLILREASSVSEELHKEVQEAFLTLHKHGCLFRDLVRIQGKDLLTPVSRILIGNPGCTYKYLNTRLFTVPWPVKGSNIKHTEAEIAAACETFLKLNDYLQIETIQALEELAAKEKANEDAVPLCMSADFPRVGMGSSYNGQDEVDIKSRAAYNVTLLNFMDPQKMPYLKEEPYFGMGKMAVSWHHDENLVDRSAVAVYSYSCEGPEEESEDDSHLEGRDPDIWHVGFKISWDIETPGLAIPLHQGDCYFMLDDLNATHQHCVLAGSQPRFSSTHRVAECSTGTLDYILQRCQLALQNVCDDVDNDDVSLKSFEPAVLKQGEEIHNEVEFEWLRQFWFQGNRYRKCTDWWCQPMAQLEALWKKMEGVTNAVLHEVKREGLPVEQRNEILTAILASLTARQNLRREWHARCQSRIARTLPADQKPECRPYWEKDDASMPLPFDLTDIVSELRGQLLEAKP

In the case of GAACCGGACUGUCUUA (ssRNA, m6A at position 8) [m6A-RNA (non-fluorescent)], the binding result in series [1], in [2], in [3] and in [4] was “binds” throughout.
The Kd is the concentration at which binding is half-saturated. Turning to GAACCGGACUGUCUUA (ssRNA, m6A at position 8) [FAM-m6A-RNA], the Kd in series [5] was found to be 0.8 µM. The binding result in series [6], in series [7], in series [8] and in [9] was “binds” throughout.

(Values after patent publication US20250144104, “DISCOVERY OF A NEW INHIBITOR FOR THE YTH DOMAIN-CONTAINING M6A RNA READERS” (The Trustees of Boston College, published 2025).)
